Assay results from patent US20180030151A1 (MOGAM INSTITUTE FOR BIOMEDICAL RESEARCH, published 2018).
Read-outs that look alike come from different tables or passages of the source.

Columns and labels:
[1] = molecular target: T1, recombinant human TFPI (tissue factor pathway inhibitor) (human, UniProt P10646 29-304); assay: cell-based or functional assay
[2] = molecular target: T1, recombinant human TFPI (tissue factor …); assay: cell-based or functional assay; remark: listed apart in the source
[3] = molecular target: T1, recombinant human TFPI (tissue factor …); assay: yeast-display scFv, FACS with biotinylated TFPI
Experimental: The finally amplified single colonies were collected from the yeast display library, and then cultured in SD medium at 30° C. at 200 rpm for 12 hours. Then, the medium was replaced with SG medium, and the cells were cultured at 25° C. at 200 rpm for 12 hours or more, thereby expressing the antibody on the yeast surface. Next, the yeast cells recovered by centrifugation were washed with PBSF (1% BSA containing PBS) buffer, resuspended in 50 μl of PBSF buffer, and then incubated with a biotin-conjugated recombinant human TFPI protein and anti-c-myc mouse antibody (CAT. No. M4439, Sigma) at room temperature for 30 minutes. The incubated yeast cells were washed with PBSF, resuspended in 50 μl of PBSF buffer, and then incubated with FITC-conjugated anti-mouse antibody (CAT. No. F0257, Sigma) and PE-conjugated streptavidin on ice under a light-shielded condition for 15 minutes. Next, the cells were washed with PBSF buffer, resuspended in 500 μl of PBSF buffer, and then clones showing high values in the FITC and PE wavelength ranges were selected by FACS, thereby obtaining individual clones.

[4] = molecular target: T1, recombinant human TFPI (tissue factor …); assay: SPR, Biacore T-200; TFPI immobilised on CM5 chip, IgG as analyte
Experimental: 10 mM of glycine-HCl (pH 1.5) was run at a flow rate of 30 μL/min for 30 seconds, thereby inducing the dissociation of the antibody associated with the TFPI. The affinity in terms of kinetic rate constants (Kₒₙ and Koff) and equilibrium dissociation constant

[5] = molecular target: T1, recombinant human TFPI (tissue factor …); assay: cell-based or functional assay; remark: listed apart in the source
[6] = molecular target: T1, recombinant human TFPI (tissue factor …); assay: cell-based or functional assay; remark: listed apart in the source

B1: clone 16 (antibody, V domains shown)
VH: EVQLVESGGGLVKPGGSLRLSCAASGFTFSHYAMTWVRQAPGKGLEWVSTITTGGSHTYYADSVEGRFTISRDNAKNSLYLQMNSLRAEDTAVYYCARQDGNFLMDYWGQGTLVTVSS
VL: DVVMTQTPLSLPVTLGQPASISCKSSPSLLDIDGKTYLNWLQQRPGQSPKRLIYLVSKLDSGVPDRFTGSGSGTDFTLKISRVEAEDVGVYYCWQGTHFPFTFGQGTKVEIKR
- FXa assay % of FXa alone, 2.5 nM Ab, 10 nM TFPI [1]: 7.3%
- FXa assay % of FXa alone, 5 nM Ab, 10 nM TFPI [1]: 10.2%
- FXa assay OD, 2.5 nM Ab, 10 nM TFPI [1]: 0.0865
- FXa assay OD, 5 nM Ab, 10 nM TFPI [1]: 0.122
- FXa assay OD, 10 nM Ab, 10 nM TFPI [1]: 0.405
- FXa assay OD, 20 nM Ab, 10 nM TFPI [1]: 0.651
- effect of inhibiting TFPI, FXa activity assay, Ab 10 nM [2]: ~34%
- effect of inhibiting TFPI, FXa activity assay, Ab 20 nM [2]: ~55%

B2: clone 4278 (antibody, V domains shown)
VH: EVQLVESGGGLVKPGGSLRLSCAASGFTFSKYAMNWFRQAPGKGLEWVSTITLGGSYTYYADSVDGRFTISRDNAKNSLYLQMNSLRAEDTAVYYCARQYLDGNFLMDYWGQGTLVTVSS
VL: DVVMTQTPLSLPVTLGQPASISCKSSQSLLDIDGKTYLNWLQQRPGQSPKRLIYLVSKLDSGVPDRFTGSGSGTDFTLKISRVEAEDVGVYYCWQGTHFPFTFGQGTKVEIKR
notes: scFv on yeast at selection; human IgG4/kappa IgG as purified
- binding result [3]: binds

B3: clone 1248 (antibody, V domains shown)
VH: EVQLVESGGGLVKPGGSLRLSCAASGFTFSSYAMNWVRQAPGKGLEWVSTITTGGSHTYYADSVDGRFTISRDNAKNSLYLQMNSLRAEDTAVYYCARQDGHFLMDYWGQGTLVTVSS
VL: DVVMTQTPLSLPVTLGQPASISCKSSQSLLDIDGKTYLNWLQQRPGQSPKRLIYLVSKLDSGVPDRFTGSGSGTDFTLKISRVEAEDVGVYYCWQGTHFPFTFGQGTKVEIKR
notes: as for B2
- binding result [3]: binds

B4: clone 4034 (antibody, V domains shown)
VH: EVQLVESGGGLVKPGGSLRLSCAASGFTFSSYAMNWVRQAPGKGLEWVSTITTGGSHTYYADSVEGRFTISRDNAKNSLYLQMNSLRAEDTAVYYCARQDGYFLMDYWGQGTLVTVSS
VL: DVVMTQTPLSLPVTLGQPASISCKSSQSLLDIDGKTYLNWLQQRPGQSPKRLIYLVSKLDSGVPDRFTGSGSGTDFTLKISRVEAEDVGVYYCWQGTHFPFTFGQGTKVEIKR
notes: as for B2
- binding result [3]: binds

B5: clone 14 (antibody, V domains shown)
VH: EVQLVESGGGLVKPGGSLRLSCAASGFTFSKYAMNWFRQAPGKGLEWVSTITLGGSYTYYADSVDGRFTISRDNAKNSLYLQMNSLRAEDTAVYYCARQYLDGNFLMDYWGQGTLVTVSS
VL: DVVMTQTPLSLPVTLGQPASISCKSSPSLLDSDGKTYLNWLQQRPGQSPKRLIYLVSKLDSGVPDRFTGSGSGTDFTLKISRVEAEDVGVYYCWQGTYFPFTFGQGTKVEIKR
notes: human IgG4/kappa IgG as purified
- binding result [3]: binds

B6: clone 15 (antibody, V domains shown)
VH: EVQLVESGGGLVKPGGSLRLSCAASGFTFSKYAMNWFRQAPGKGLEWVSTITTGGSYTYYADSVEGRFTISRDNAKNSLYLQMNSLRAEDTAVYYCARQHPYGNFLMDYWGQGTLVTVSS
VL: DVVMTQTPLSLPVTLGQPASISCKSSPSLLDSDGKTYLNWLQQRPGQSPKRLIYLVSKLDSGVPDRFTGSGSGTDFTLKISRVEAEDVGVYYCWQGFYFPFTFGQGTKVEIKR
notes: as for B5
- binding result [3]: binds

B7: clone 21 (antibody, V domains shown)
VH: EVQLVESGGGLVKPGGSLRLSCAASGFTFSSYAMNWVRQAPGKGLEWVSTITKGGSYTYYADSVDGRFTISRDNAKNSLYLQMNSLRAEDTAVYYCARQDGNFLMDYWGQGTLVTVSS
VL: DVVMTQTPLSLPVTLGQPASISCKSSPSLLDSDGKTYLNWLQQRPGQSPKRLIYLVSKLDSGVPDRFTGSGSGTDFTLKISRVEAEDVGVYYCWQGTHFPFTFGQGTKVEIKR
- FXa assay % of FXa alone, 2.5 nM Ab, 10 nM TFPI [1]: 5.9%
- FXa assay % of FXa alone, 5 nM Ab, 10 nM TFPI [1]: 6%
- FXa assay % of FXa alone, 10 nM Ab, 10 nM TFPI [1]: 6.5%
- FXa assay % of FXa alone, 20 nM Ab, 10 nM TFPI [1]: 7.2%

B8: clone 308-2 (antibody, V domains shown)
VH: EVQLVESGGGLVKPGGSLRLSCAASGFTFSSYAMNWVRQAPGKGLEWVSTITTGGSYTYYADSVQGRFTISRDNAKNSLYLQMNSLRAEDTAVYYCARQDGNFLMDYWGQGTLVTVSS
VL: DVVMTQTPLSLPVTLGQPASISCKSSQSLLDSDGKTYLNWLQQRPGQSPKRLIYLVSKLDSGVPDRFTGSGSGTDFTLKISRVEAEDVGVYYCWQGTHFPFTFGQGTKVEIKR
- Kd [4]: 0.033 nM
- TF/FVIIa/FXa assay % of 0 nM TFPI, 12.5 nM Ab, 50 nM TFPI [5]: 18.5%
- TF/FVIIa/FXa assay % of 0 nM TFPI, 50 nM Ab, 50 nM TFPI [5]: 102%
- TF/FVIIa/FXa assay % of 0 nM TFPI, 100 nM Ab, 50 nM TFPI [5]: 110%
- TF/FVIIa/FXa assay OD, 12.5 nM Ab, 50 nM TFPI [5]: 0.148 OD
- TF/FVIIa/FXa assay OD, 25 nM Ab, 50 nM TFPI [5]: 0.303 OD
- TF/FVIIa/FXa assay OD, 50 nM Ab, 50 nM TFPI [5]: 0.816 OD
- TF/FVIIa/FXa assay OD, 100 nM Ab, 50 nM TFPI [5]: 0.88 OD
- FXa assay % of FXa alone, 0.625 nM Ab, 10 nM TFPI [6]: 5%
- FXa assay % of FXa alone, 2.5 nM Ab, 10 nM TFPI [6]: 8%
- FXa assay OD, 0.625 nM Ab, 10 nM TFPI [6]: 0.053 OD
- FXa assay OD, 2.5 nM Ab, 10 nM TFPI [6]: 0.078 OD
- FXa assay OD, 10 nM Ab, 10 nM TFPI [6]: 0.71 OD
- FXa assay OD, 40 nM Ab, 10 nM TFPI [6]: 0.832 OD
- TFPI inhibitory activity, FXa activity assay, Ab 10 nM [2]: 72%
- TFPI inhibitory activity, FXa activity assay, Ab 40 nM [2]: 85%
- TFPI inhibitory activity, TF/FVIIa/FXa complex assay, Ab 50 nM [2]: 100%
- TFPI inhibitory activity, TF/FVIIa/FXa complex assay, Ab 100 nM [2]: 100%
